Here are results for 30 sequences from the nanobody polyreactivity screen of Harvey et al. (2022).

This series in a line: yeast display, Sf9 membrane polyspecificity reagent, FACS + sequencing; frameworks hold sequencing errors. In short, it runs like this:
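Galactose-induced (36–48 hours) yeast carrying a synthetic nanobody display library were exposed to 10% biotinylated, detergent-solubilized Sf9 membrane reagent at 4 °C for 1 hour. FACS followed streptavidin microbead enrichment, using low and high (top ~1%) gates for expression (anti-HA) and reagent binding (streptavidin). Colony PCR, MiSeq 2 × 250 sequencing and CDR-length filtering followed. Labels for polyreactivity reflect the gate of origin.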
On to “QVQLVESGGGLVQAGGSLRLSCAASGFIFDQYAMGWYRQAPGKERELVAAITSGGDTNYADSVKGRFTISRDNAKNTVYFQMNSLKPEDTAVYYCNVDVPGVRFEYWGQGTQVTVSS”, for which the “polyreactivity (PSR sort gate)” value is given as “low polyreactivity”.
For the sequence “QVQLVESGGGLVQAGGSLRLSCAASGFIFDRYAMGWYRQAPGKERELVAAISSGGSTYYADSVKGRFTISRDNAKNTVYLQMNSLKPEDTAVYYCAAESWLKFIYEYDYWGQGTQVTVSS”, the “polyreactivity (PSR sort gate)” value was “low polyreactivity”.
As for “QVQLVESGGGLVQAGGSLRLSCAASGFIFDRYAMGWYRQAPGKERELVAAITGSGGSTYYADSVKGRFTISRDNAKNTVYLQMNSLKPEDTAVYYCAAESYVYFALFYVSIPYYYWGQGTQVTVSS”, the “polyreactivity (PSR sort gate)” value is on record as “high polyreactivity”.
For the sequence “QVQLVESGGGLVQAGGSLRLSCAASGFIFDSNAMGWYRQAPGKERELVAAISRSGASTYYADSVKGRFTISRDNAKNTVYLQMNSLKPEDTSVYYCAASVRKIHDRFYYWGQGTQVTVSS”, the “polyreactivity (PSR sort gate)” value is “high polyreactivity”.
For “QVQLVESGGGLVQAGGSLRLSCAASGFIFDSYAMGWYRPAPGKERELVATITKGGGRTYYADSVKGRFTISRDNAKNTVYLQMNSLKPEDTAVYYCNARGFSRRKGLDYWGQGTQVTVSS” the value was “low polyreactivity”; for “QVQLVESGGGLVQAGGSLRLSCAASGFIFDSYAMGWYRQAPGKERELVAAISWSGGRTYYADSVKGRFTISRDNAKYTVYLQMNSLKPEDTAVYYCNVRTKLSSSYDYWGQGTQVTVSS”, “high polyreactivity”; for “QVQLVESGGGLVQAGGSLRLSCAASGFIFDSYAMGWYRQAPGKERELVATITKGGGRTYYADSVKGRFTISRDNAKNTVYLQMNSLKPEDTAVYYCNARGFSRRKGLDYWGQGTQVTVSS”, “low polyreactivity”.
To “QVQLVESGGGLVQAGGSLRLSCAASGFIFDTYAMGWYRQAPVKERELVAAISWTGTDTYYADSVKGRFTISRDNAKNTVYLQMNSLKPEDTAVYYCAARSRYKYSPSGDYWGQGTQVTVSS” belongs “high polyreactivity”; to “QVQLVESGGGLVQAGGSLRLSCAASGFIFDVNALGWSRQATGKERELVATISKRGGTTYYADSVKGRFTISRDNAKNTVYLQMYSLKPDDTAVYYCAARHQTLRSYRYDYWGQGTQVTVSS”, “low polyreactivity”.
To “QVQLVESGGGLVQAGGSLRLSCAASGFIFDWYTMGWYRQAPGKERELVAAITIGGSTDYADSVKGRFTISRDNAKNTVYLQMNSLKPEDTAVYYCNALWYLSGTWYDYWGQGTQVTVSS” belongs “low polyreactivity”; to “QVQLVESGGGLVQAGGSLRLSCAASGFIFDYNTMGWYRQAPGKERELVADISGGGGRTYYADSVKGRFTISRDNAKNTVYLQMNSLKPEDTAVYYCAALGFYHHAWWISYDYWGQGTQVTVSS”, “low polyreactivity”; to “QVQLVESGGGLVQAGGSLRLSCAASGFIFDYYAMGWDRQAPGKESELVAAIRRSGGTTYYADSVKGRFTISRDNAKNTVYLLMNSLKPEDTAVYYCNVDSGEFDYVWVYTYDYWGQGTQVTVSS”, “low polyreactivity”.
In the case of “QVQLVESGGGLVQAGGSLRLSCAASGFIFDYYAMGWYRQAPGKERELVAAISGRGGSTYYADSVKGRFTISRDNAKNTVYLQMNSLKPEDTAVYYCAKGVERYTYGSYWYDYWGQGTQVTVSS”, the “polyreactivity (PSR sort gate)” value is “high polyreactivity”.
As to “QVQLVESGGGLVQAGGSLRLSCAASGFIFDYYAMGWYRQAPGKERELVAAITSRSGSTYYADSVKGRFTISRDNAKNTVYLQMNSLKPEDTAVYYCARRFKYGSTAWRFYYWGQGTQVSVSS”, the “polyreactivity (PSR sort gate)” value is “high polyreactivity”.
In the case of “QVQLVESGGGLVQAGGSLRLSCAASGFIFDYYAMGWYRQAPGKERELVASISGDDGRTYYADSVTGRFTISRDNAKNTVYLQMNSLKPEDTAVYDCNAEWGVLNYDYWGQGTQVTVSS”, the “polyreactivity (PSR sort gate)” value is listed as “low polyreactivity”.
To “QVQLVESGGGLVQAGGSLRLSCAASGFIFDYYAMGWYRQAPGKERELVGAITSGDSTNYADSVKGRFTISRDNAKNTVYLQMNSLKPEDTAVYYWGQGTQVTVSS” belongs “low polyreactivity”.
To “QVQLVESGGGLVQAGGSLRLSCAASGFIFEGNAMGWYRPAPGKERELVAAISWSGGRTFYADSVKGRFTISRDNAKNTVYLQMNSLKPEDTAVYYCNALPGRRRWQVDYWGQGTQVTVSS” belongs “high polyreactivity”; to “QVQLVESGGGLVQAGGSLRLSCAASGFIFEHYAMGWYRQAPGKERELVARISWRGGSTYYGDSVKGRFTISRDNAKNTVYLQMNSLKPEDTAVYYCAKYAHGHKWYGYWGQGTQVTVSS”, “low polyreactivity”; to “QVQLVESGGGLVQAGGSLRLSCAASGFIFEKYTMGWYRQAPGKERELVAAITWNGGSTYYADSVKGRFTISRDNAKNTVYLQMNSLKPEDTAVYYCAARVGWNKRRYDYWGQGTQVTVSS”, “low polyreactivity”.
For “QVQLVESGGGLVQAGGSLRLSCAASGFIFEYYAMGWYRQAPGKERELVAAISQSGGSTYYADSVKGRFTISRDNAKNTVYLQMNSLKPEDTAVYYCNKTRYSRSYYEYDYWGQGTQVTVSS” the value was “low polyreactivity”; for “QVQLVESGGGLVQAGGSLRLSCAASGFIFEYYVMGWYRQAPGKERELVAAISGSGGSTNYADSVKGRFTISRDNAKNTVYLQMNSLKPEDTAVYYCAARYYYFSANIFRYYYWGQGTQVTVSS”, “high polyreactivity”; for “QVQLVESGGGLVQAGGSLRLSCAASGFIFEYYVMGWYRQAPGKERELVAAISSSDGSTNYADSVKGRFTISRDNAKNTVYLQMNSLKPEDTAVYYCAKDLLKSYNRVVVDADDYWGQGTQVTVSS”, “low polyreactivity”.
With “QVQLVESGGGLVQAGGSLRLSCAASGFIFFGYAMGWYRQAPGKEMELVAAITSGGSTYYADSVKGRFTISRDNAKNTVYLQMNSLKPEDSAVYYCAAVRWYGSKRYGYWGQGTQVTVSS”, the “polyreactivity (PSR sort gate)” value is reported as “high polyreactivity”.
Consider “QVQLVESGGGLVQAGGSLRLSCAASGFIFFGYAMGWYRQAPGKERELVAAITSGGSTYYADSVKGRFTISRDNAKNTVYLQMNSLKPEDTAVYYCAASRVRYSYGYPYYYWGQGTQVTVSS”, for which the “polyreactivity (PSR sort gate)” value is “high polyreactivity”.
To “QVQLVESGGGLVQAGGSLRLSCAASGFIFFINDMGWYRQAPGKERELVAAISWSGGSTYYADSVKGRFTLSRDNAKNTVYLQMNSLKPEDTAVNYCNTDVPTAQYDYWGQGSQVTVSS” belongs “low polyreactivity”; to “QVQLVESGGGLVQAGGSLRLSCAASGFIFFKYVMGWYRPAPGKERELVAAISTTGGRTYYADSVKGRFTISRDNAKNTVYLQMNSLKPEDTAVYYCAADYPVWNHGFDYWGQGTQVTVSS”, “high polyreactivity”; to “QVQLVESGGGLVQAGGSLRLSCAASGFIFFRYAMGWYRQAPGKERELVAAISSSGGSTYYADSVKGRFTISRDNAKNTVYLQMNSLKPEDTAVYYCAAPRYRIFVGLGMEYWGQGTQVTVSS”, “high polyreactivity”.
As to “QVQLVESGGGLVQAGGSLRLSCAASGFIFFTYAMGWYRQSPGKERELVAAISSRGGSTYYADSVKGRFTISRDNAKNTVYLQMNSLKPEDTAVYYCAAQAYGRYPYGYWGQGTQVTVSS”, the “polyreactivity (PSR sort gate)” value is listed as “high polyreactivity”.
To “QVQLVESGGGLVQAGGSLRLSCAASGFIFFYAMGWYRQAPGKERELVAAISSRGGSTYYADSVKGRFTISRDNAKNTVYLQMNSLKPEDTAVYYCAALLWSAESDYWGQGTQVTVSS” belongs “high polyreactivity”; to “QVQLVESGGGLVQAGGSLRLSCAASGFIFGAYAMGWYRQAPGKESELVAAISWSGGRTYYADSLTGRFTISRDNAKNTVYLQMNSLKPEDTAVYYCAAAVYTTRYSASEYWGQGTEVTVSS”, “high polyreactivity”.
